According to patent publication US12318456B2, “Therapeutic nanoparticles containing argonaute for microRNA delivery and compositions and methods using same” (KOC UNIVERSITESI, priority 2018, dated 2025):

How the values were obtained:
miR-376b = experiment: Flag immunoprecipitation of AGO2 and its domains, miRNA level by Taqman QPCR; type: binding; settings: flag tagged proteins overexpressed in HEK293T cells, immunoprecipitated with flag beads
Excerpt: The miRNA is anchored in AGO2 protein and makes several kinks and turns along the binding groove (Elkayam et al. Cell. 2012. 150:100-110). A binding pocket composed of residues from PAZ and PIWI domains as previously observed interacts with miRNA (Boland et al. EMBO Rep. 2010. 11:522-527; Lingel et al. Nat Struct Mol Biol. 2004. 11:576-577; Schirle et al. Science. 2014. 346:608-613; Wang et al. Nature. 2008. 456:209-213). To determine which domain of AGO2 protein have the key role in miRNA binding affinity, flag tagged AGO2 protein and its domains, PAZ and PIWI, were overexpressed in HEK293T cells in the presence or absence of miR-376b overexpression and they immunoprecipitated with flag beads. […] It can be concluded that each domain of AGO2 protein is essential for the highest binding affinity (FIG. 10).

[1] = Hydrodynamic properties of SPIONs by dynamic light scattering; type: physicochemical; settings: medium PBS; for HDR Z-average (hydrodynamic size): dynamic light scattering
Description: Hydrodynamic properties of SPIONs were measured after each conjugation step to monitor colloidal stability (Table 2).

Substance	miRNA binding affinity (miR-376b) (miR-376b)	HDR Z-average (hydrodynamic size) [1] [nm]	PDI [1]	Zeta Potential [1] [mV]
PAZ: flag tagged AGO2 fragment, aa1-480	partial role	–	–	–
SPION/AGO2/PEG-MI: SPION/AGO2 reacted with NH2-PEG-Mal (2000 Da) linker	–	30	0.59	−21
SPION/AGO2: AGO2 protein covalently attached to SPION/PAA via amide bond (EDC/NHS)	–	20	0.43	−23
full length AGO2 protein: flag tagged full length Argonaute-2 protein overexpressed in HEK293T cells	greater affinity	–	–	–
